Measurements from publication PMC10384113, “Structural and Functional Characterization of Drosophila melanogaster α-Amylase” (Molecules, 2023).

How the values were obtained:
[1] = biological target: T1, DMA (Drosophila melanogaster α-amylase) (Drosophila melanogaster, UniProt P08144); assay: residual activity on starch after inhibitor preincubation; assay type: biochemical; details: native DMA, Pichia-produced; inhibitor 1-50 µM, 20 mM HEPES pH 7.5, 20 mM NaCl, 1 mM CaCl2, 25 °C
T1 construct: gene Amy-p; mature enzyme of 476 residues in crystal; recombinant, amy-p in pET22b, E. coli BL21 (kinetics, crystals); glycogen-purified; no tag mentioned
T1 sequence (P08144 with tags, fused parts or gaps): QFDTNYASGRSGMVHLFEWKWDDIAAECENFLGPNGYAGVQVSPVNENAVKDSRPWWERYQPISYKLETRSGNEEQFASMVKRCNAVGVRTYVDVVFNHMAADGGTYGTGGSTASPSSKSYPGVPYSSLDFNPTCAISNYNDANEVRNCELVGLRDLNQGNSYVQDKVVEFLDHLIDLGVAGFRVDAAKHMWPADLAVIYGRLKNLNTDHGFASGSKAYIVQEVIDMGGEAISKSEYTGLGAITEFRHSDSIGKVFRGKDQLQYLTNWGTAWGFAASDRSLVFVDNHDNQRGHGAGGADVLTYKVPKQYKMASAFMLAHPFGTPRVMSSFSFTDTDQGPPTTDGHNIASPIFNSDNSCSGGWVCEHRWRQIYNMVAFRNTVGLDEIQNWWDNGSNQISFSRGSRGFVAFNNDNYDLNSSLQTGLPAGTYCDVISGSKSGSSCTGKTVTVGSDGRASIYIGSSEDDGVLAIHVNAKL

[2] = biological target: Drosophila melanogaster α-amylase (Drosophila melanogaster) (UniProt P08144)
Sequence of Drosophila melanogaster α-amylase (Drosophila melanogaster) (P08144 other isoform, or with tags, fused parts or gaps): as the sequence (P08144 with tags, fused parts or gaps) above

In the case of `C[C@H]1O[C@H](O[C@H]2[C@H](O)[C@@H](O)[C@@H](O[C@H]3[C@H](O)[C@@H](O)C(O)O[C@@H]3CO)O[C@@H]2CO)[C@H](O)[C@@H](O)[C@@H]1N[C@H]1C=C(CO)[C@@H](O)[C@H](O)[C@H]1O` (stereo partly shown) [acarbose], the “residual activity (%)” value [1] is reported as “Residual activity of (a) native DMA after treatment with proteinaceous inhibitors and acarbose”.
“WI-1 (tetrameric form), wheat α-amylase inhibitor from Triticum aestivum seeds (complex)” was tested, and the residual α-amylase activity of DMA after 20 min incubation with the inhibitor (1 to 50 µM) at 25 °C, pH 7.5; value at 10 μM WI-1 [2] was 6%.
For “WI-3 (monomeric form), wheat α-amylase inhibitor from Triticum aestivum seeds (natural protein)”, the residual α-amylase activity of DMA after 20 min incubation with the inhibitor (1 to 50 µM) at 25 °C, pH 7.5; value at 10 μM WI-3 [2] was 0.8%.
“α-AI, α-amylase inhibitor from seeds of the common bean Phaseolus vulgaris (natural protein)” gave a residual α-amylase activity of DMA after 20 min incubation with the inhibitor (1 to 50 µM) at 25 °C, pH 7.5; value at the highest concentration (50 μM) of α-AI [2] of 38%.
